B1: No. 5: DATAS fragment; N-acetyltransferase 6; exon extension (nucleic acid, listed as Homo sapiens)
DNA: GTAAAGGCATGTGGAATCCAGGGGCAGCTTTGGCTGGCACGCAGGATCCAGAGTCAGCTCAGCTGGGCTGGTACTCAGGATCAGCTCCATCCGGTGTGTAGGGTCTAGTGTAGGGGTCAGCTTGGCTGGGCCAGGGCTCAGAGTCAGCTCTTGCCTATGCACAGGATCCAGGTTCAGCTGAGTCAGGCTGGGAGCCAAGGTCACCTGCTGCTAGGTTGCAGGTGGCTCAGTGCCAGGCTGGAGGTTAAGACCCCAGTCTCCAGGCAGTAGCATCTCTTCAGACCACAGTGGCTCTCCTCATGTTGATGCTGGCCTCTGGGATGTTCCGCGTCCTAGCTCCGCACAGCTGGGTATCTCACTCAGTCGCCACCTCGGCCTCCCAACA
B2: No. 6: DATAS fragment; transmembrane protease, serine 2; exon extension (nucleic acid, listed as Homo sapiens)
DNA: GCCGAGGTCTTCCCTAAGGACAGGGAGACTTGTTGAGCTCCCAGTGTTGCCTGCAGCTCTCGCAGGGAGAGCACACTTCCCTCCCTGAGACCTCCACACGCACTACACAGATGGTCACAGCCCTATTCTCCAGCCCTGCCCCCGTCAGCTCATCCCAGCACCAACCCCTCTCCTGGGAAACCTGGATTCTCCTTACAACTGGCGGTGCCTGTGCTGAATGCAGCTCTGGAGTTCAGCTTCAGGGAAAGAAATTCCCAGCTCTGAAACTATAGGGCTCTATCAGTGCCATGGAATCCCCCTCTTATTCACCCAACGGCTTGGTTCTGCTGAACCAATTTCCCACTCCTCACTGAACCCCACCCAGGACACACAGGCGCCTGTTTCCCCTCTGGCATGCACACACTCTTCTGGAGCACACGCGACCCTCCCTAGGCCGCCTGCTTCTCGGCTCCCCTGCACA
B3: No. 8: DATAS fragment; ataxin 2-like; exon extension (nucleic acid, listed as Homo sapiens)
DNA: GTAGCAGGGCAGCAGACTTGGGAGAACGCGGGGGATACATCCGGCCCACTGGAAGAAAAGGGGGAGCTGTAGGATGGTTACTGCTGGTCAACAGCAGTGAGTACAAGGGCCTTACTCAAAACAGCAAGAAAGTTTACACACTATACAACCAGAGTCACCAACTTAAATGTCTAGAAGCTCAAGGCAGGTAACACAAGCAGGTAAATGGCCTCATGGGCATCATCGACAACTGGAATGCTTAAAGGAGTGGCAGGGATTCTGTTCCAGTCAACTCAAGCTACGCAGCAAGGCAAGCTCAGTTGACAGAATTTCCTGTAATTCAAAAGAAACTAAAAATTTTCTATGGCTTCTATTGATTTATTTATTTAGAGACAGGGTATCGCTCTGTTCCCC
B4: No. 9: DATAS fragment; protein kinase C, zeta; novel exon (nucleic acid, listed as Homo sapiens)
DNA: GGGCAAAGGATGTTGCCCCTGTCCTGAAGGCTGTCGCCCGATCGCTCTATCCAAGGCTGCCCTGGGGCAGCGTCACCTGGGGGTCCTGCGGGGGCTTCTCAGCACAGCATCCAGCACTGCCACCTAGTGTGTTCCCGTCACGTCTCCTCCCCCCG
B5: No. 10: DATAS fragment; transferrin receptor (p90, CD71); novel exon (nucleic acid, listed as Homo sapiens)
DNA: GTGGCGAGGCGGTTCGGGACGGAGGACGCGCTAGTGTTCTTCTGTGTGGCAGTTCAGAATGATGGATCAAGCTAGATCAGCATTCTCTAACTTGTTTGGTGGAGAACCATTGTCATATACCCGGTTCAGCCTGCTCTCC
B6: No. 11: DATAS fragment; cadherin-like 23; novel exon (nucleic acid, listed as Homo sapiens)
DNA: GACACCCTAGCTGCAAGGGAGGTTAGAAAAAATGAGGGACAGGATTATCATGGTCAGCATATTACTTGGGGGCCAGATATATCACTTCCCACACAAAAGCAGGCCTCTGTCAGTGAGGAAGAAGTGGAGAATGGATTTGGGGTGGGCATCTGACAGCATTTGCCACACTGCCCTCCCCAATCCTAATGCAGGCCAGTCAACGCACCACCCCCACTCCCCACCCACACTCCAACCCCCACAGTCCTAGGGTCTCTCAGGGAGACCATCGGTGGAATCCATAACATTCTAAGACCCTGCAGTTTGTAGGCAAAATCAGGCTTCCTTTGGGTGCCCCCG
B7: No. 13: DATAS fragment; ATPase, Class V, type 10A; exon extension (nucleic acid, listed as Homo sapiens)
DNA: GGAGGAGGTCGGCATCACCAGTAACAGGAATCCCTCTCCCTTTGAAGGCAGTGATGGCCAGCGACTTTGCAGTGCCGAAATTCCGATACCTGGAGAGGCTCTTGATTCTTCACGGGCATTGGTGCTACTCCCGACTTGCCAACATGGTGCTGTACTTCTTCTACAAAAACACAATGTTCGTGGGCCTCCTGTTTTGGTTCCAGTTTTTCTGTGGCTTCTCTGCATCTACCATGATTGACCAGTGGTATCTAATCTTCTTTAATCTGCTCTTCTCGTCACCTCCAACGA
B8: No. 14: DATAS fragment; zinc finger protein 142 (clone pHZ-49); exon extension (nucleic acid, listed as Homo sapiens)
DNA: CGGACCAGGACAAAATCATGACGATGCTCCATCCCAAGCCTTCCAGGTTACAAACCGCCTTTCCAGTTCGCTGGCTCTTATGATCCAGCTCCTGCCCGACGATGTGGACACTGTCATCACCTCCATTTTACAGATAGGAAAGCTGAGGCCCAGAGAAGCGAAGCGACTGTGTCTGTCCAAGACCACGCGCCCTCCTCCCTGTC
B9: No. 15: DATAS fragment; GenBank Human mRNA AF116698 (intronic hit); genomic hit (nucleic acid, listed as Homo sapiens)
DNA: CGGCGCACCTGGTACGTGGTGTATGTTCCATTTGTGCTGGCCACGGTGATGATGATGATGATGCCATCTCTCCGGCTACACTGCGAGCACAGATCACAGCTCTCTGTAGCTGATGCTGGCTCTACCCACTGTATTCGGG
B10: No. 18: DATAS fragment; golgi SNAP receptor complex member 2; exon extension (nucleic acid, listed as Homo sapiens)
DNA: GGCCTTAGGGGCACGAGGATGTGAATCGACCTACTACTTAATATAATGGCTGTGAGAAAAGGCCTCTTTCCTTTCCTTTCCACTTTTGCTCCACCCTATCAGGAGCCAGAAAGGCCTGATGGTGACAAGGTGTGAACCGTGTGGACAGTCCTGCACACAGGGCTCACTGTGGACACCTTCCCAGGGCACGCATCAGCTGTGTGAACAAAGCCACCAAAGCCATTCTTTCCCTCCCCCGC
B11: No. 19: DATAS fragment; GenBank human mRNA AK054845; novel exon (nucleic acid, listed as Homo sapiens)
DNA: GGGGACAGGCAGAGGTTGCACTGCACTCCAGCCTGGGTGACAGATCAAGATTCTGTCTCAAGTAATAATAATGATGATGATGATGATGATGATGATGATGATAATAACACACCTTGTTAATGTTAATTCACTGTGTTAAATCAATTAACTCATTTTCTCATAATTACCCTTGAACGAGTAAGTTATTGACATTCTCTCCATGGGAAAAAAAACCCTTGGAGAAAGGTAACTTGAATATGGCCAAATGGGCAATTTGGATAGAACTGGGATTTGAACCTAGGACATCTGATTCCACATCCTTTTCATGAGCCACAATGCTCTACATGTGGTTTTATTTCTTGGATCACATGTAACACATCCATAAAAGTGCCTCCCCCCG
B12: No. 21: DATAS fragment; GenBank human mRNA AK123820; exon extension (nucleic acid, listed as Homo sapiens)
DNA: GGCGGCAGGTCTAATCTGGCACACTTGCTAACTTCTAATAAAGAATCAAATGGTCTTCCAACTCACATAATGACTAATTCTAAAGCATGCAACCTCAAAGTACTACATTCTCCCTGTTCTAGAAATACAACCCTAGAGGGCCAGTCTTCCTTCAGCATTCAAATATTGAGTAGAACAACTGAACTGTAAGGTTCAACTAAAGGAATGCAACTGTGACTTGAGCTGTGGAACGGCTATGGCCTAAGTCAAGAATTCTCAACCTCCCAC
B13: No. 1: DATAS fragment; chromosome 14 open reading frame 122; exon extension (nucleic acid, listed as Homo sapiens)
DNA: CTACCGGGGGAAGGGTCAAAGAGCGTGCCGAAGCGCTGGAGGGAGCTTCACGGACGCGAGCTAGGCACCGGCTCGCCTAATCCGGTACTAATCCGGCTTGCTGCTTCCCGTCCAGGCCTCGCTCGCCATGGGGGAGGTGGAGATCTCGGCCCTGGCCTACGTGAAGATGTGCCTGCATGCTGCCCGGTACCCACACGCCGCAGTCAACGGGCTGTTTTTGGCGCCAGCGCCGCGGTCTGGAGAATGCCTGTGCCTCACCGACTGTGTGCCCCTCTTCCACAGCCACCTGGACCTGTCCGTCATGTTGGAGGTCGCCCTCAACCAGGTGCCTCCGTTGCAT

system: HLA class I (e.g. HLA-A2) expressing adherent 293T cells; assay: CTL assay on reverse transfected microarray (caspase activation, fluorescent Z-VAD); assay type: cell-based, human; settings: HLA-matched CD8+ T cells from prostate cancer patients incubated 4 hours on array; red fluorescent signal = positive response
Excerpt: Additional patient samples were procured for the cytotoxic T Lymphocyte (CTL) assay. […] (PBMC) were isolated from blood drawn from patients with relevant clinical parameters, and with patient consent. Clinical data generally included patent history, physiopathology, and parameters relating to prostate cancer physiology. PBMCs were collected from 6 prostate cancer patients that met the study requirements. Duplicate samples were obtained from a single patient.
The 192 selected DATAS fragments were PCR amplified out of the library vector and directionally cloned into a eukaryotic expression vector down stream from staggered start site initiation codons. This configuration allows the DATAS fragment to be expressed in all the open reading frames, which is required because the correct reading frame is not always readily apparent.
Plasmid preparations were performed and the expression vectors containing the selcted DATAS fragment clones were re-arrayed into 96 well plates, which were subsequently used to spot glass slides for use in the CTL assay previously disclosed in International Patent Application No. PTC/US2005/032392, the disclosure of which is incorporated by reference in its entirety.
A design file containing the desired microarray positions of the DATAS expression vectors was uploaded into a high resolution scanner. The expression vectors containing the DATAS fragments were mixed with gelatin and lipofectamine and then spotted in duplicate in a pattern that matched the design file uploaded into the high resolution microarray scanner. The following positive controls, negative controls and experimental samples were spotted on the array.
The spotted arrays were then overlaid with HLA class I (e.g. HLA-A2) expressing adherent 293T cells and cultured for 48-72 hours to allow cells time to express vector-encoded transcripts.
The assay for CTL reactivity was then performed by incubating HLA-matched CD8^+ T cells from normal and prostate cancer patients on cultured reverse transfected microarray slides for 4 hours. Prior to incubation with the array, T cells from normals or patients may need to be expanded in vitro, to a small or large extent, to enhance the frequency of responding T cells. An inhibitor of activated caspase, fluorescence-tagged (sulfo-Rhodamine)-Z-VAD, is present throughout the cell incubation to bind caspases that become activated when antigen expressing adherent cells on certain spots are induced to die by the CTL. The slides are then washed to remove unbound fluorescent Z-VAD and 2-color (Green and Red) fluorescence images of the microarray slides are obtained with the microarray scanner.
Analysis and confirmation of data is then determined by visual inspection of the scanned image. The success of the reverse transfection is evaluated by observing green fluorescence at EGFP vector control spots. Then the fluorescence threshold(s) are adjusted on microarray scanner as necessary to establish relevant background and positive control signal intensities. […] Using the coordinate locations for the spots, the cDNAs yielding positive responses are identified.

Molecule | Patient ID with positive hit
B1 | EYGRT
B2 | EYGRT
B3 | MSMPB
B4 | EYGRT
B5 | MSMPB
B6 | MSMPB; P72
B7 | MSMPB
B8 | MSMPB
B9 | MSMPB
B10 | FRJY5
B11 | EYGRT
B12 | EYGRT
B13 | EYGRT

From patent publication US20120141376A1, “PROSTATE SPECIFIC TRANSCRIPTS AND THE USE THEREOF FOR PROSTATE CANCER THERAPEUTICS AND DIAGNOSTICS” (priority 2006, published 2012)
